For the assay, the target named is 重组人Bromodomain结构域结合蛋白4(BRD4,区域49-170aa)(Biovision，货号:7643-100) (human, UniProt O60885 49-170). Description: BLI (Fortebio Octet), binding kinetics; format not stated. In general terms: BLI is a label-free optical method that tracks binding on a fibre tip over time.

From patent publication CN116063478A (BEIJING SHUNYUANTIAN BIOLOGICAL PRODUCTS CO LTD, dated 2023) come the findings set out here.

B1: BRD4-3F14单抗 (antibody, V domains shown)
VH: VKPGGSLKLSCAASRGWVDPYRMSWVRQTPDKRLEWVAIQITGHDFDYYPDSVKGRFTISRDQDKQTLYLQMSSLKSEDTAMYYCLGPKAVKHLELWGQGTTVTVS
VL: DLVMTQTAPSVPVTPGESVSISCRSTAWWYVWWMLWQLYWFLQRPGQSPQLLIYVYHNLASGVPDRFSGSGSGTAFTLRISRVEAEDVGVYYCWHFPRHKCSFGSGTKLEIK
B1 came in with an equilibrium dissociation constant (Kd) of 1.07 nM.

Broadly, the Kd is a measure of binding affinity in units of concentration. Read a low Kd as a tighter complex.
